± gives the half width of the 95% confidence interval.
What was measured:
[1] = folding stability dG unfold from trypsin proteolysis; higher = more stable
Method in brief: (§1)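 Bayesian fitting of sequencing counts gave K50 for each design. Unfolding free energy followed by setting this against a sequence-predicted unfolded-state K50 and a shared folded-state K50, either per protease or with trypsin and chymotrypsin combined. The designs, under 80 residues and lacking cysteine, were digested in a PA-tagged cDNA display format at 11 threefold-diluted protease concentrations and without protease, and only those with AlphaFold2 dimer inter-PAE above 15 were kept.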

[2] = folding stability dG unfold from chymotrypsin proteolysis; higher = more stable
Method in brief: as §1

[3] = folding stability dG unfold (combined trypsin and chymotrypsin); higher = more stable
Method in brief: as §1

Row | Sequence | folding stability dG unfold [1] [kcal/mol] | folding stability dG unfold [2] [kcal/mol] | folding stability dG unfold [3] [kcal/mol]
1 | SAGGSKKKIEKIEIEIEIKNKDGKTYKIKAEIEKVELKDGKVAKIRLEIYNENGEKIAEFEFEIKISAGGSA [r2_215_TrROS_Hall] | 2.08 ± 0.15 | 4.03 ± 0.19 | 3.61 ± 0.23
2 | SAGGSKKKKPEKPPVVLIKITVEETGKEITIPLEELRNMSAEELAKRIAEELRERYPGLKVRVEIVSAGGSA [r2_392_TrROS_Hall] | 1.49 ± 0.071 | 2.28 ± 0.11 | 2.07 ± 0.17
3 | SAGGSKKTIVIPVPPGMSVEQIAAELKAKLEELFPDLKVEVVEVKPDGYVKIKIDGKLILIKFPKPSAGGSA [r2_102_TrROS_Hall] | 1.6 ± 0.049 | 3.18 ± 0.042 | 2.77 ± 0.063
4 | SAGGSKKVDIKPGKVKKVEVKTLPNGKKLLVLYFPLEDGKEKVVVISSDFKTPEEALEAAYKQLGKSAGGSA [r2_347_TrMRF] | 1.02 ± 0.049 | 1.21 ± 0.066 | 1.23 ± 0.21
5 | SAGGSKKVKIKITKIEIFPNGTIKVTVKNEDGSEVTITITKNKDGKYKIKIKNKKTKKIFEFEIPLSAGGSA [r2_361_TrROS_Hall] | 2.22 ± 0.089 | 3.1 ± 0.06 | 2.8 ± 0.22
6 | SAGGSKLPKNSKVLIIDLGAPKGIKPNDKVKIPKELIKKIKEKNPNVKFYKEYNIGNKTYIFIVIDSAGGSA [r2_383_TrMRF] | 1.31 ± 0.067 | 2.39 ± 0.059 | 1.96 ± 0.12
7 | SAGGSKPKTVEITLEVDGKKVKITVTEKDGKLTVTITFPDGTKLTIELPENMSIEEALKKALEALKSAGGSA [r2_92_TrROS_Hall] | 3.28 ± 0.13 | 2.4 ± 0.062 | 2.87 ± 0.096
8 | SAGGSKTIEVEIKVPPGMTPEEVAKKLAEELKKAGIEVKVVKVEYDEEKGTVRITLDDGSEVELKVSAGGSA [r2_242_TrROS_Hall] | 1.35 ± 0.093 | 1.98 ± 0.1 | 1.58 ± 0.39
9 | SAGGSKTVELEIEIDGKLIKIRVEENENGELTVRIEIYDKNGKKVKEIEIKVKSLEEALKALEKLLSAGGSA [r2_82_TrROS_Hall] | 3.21 ± 0.12 | 3.22 ± 0.12 | 3.22 ± 0.12
10 | SAGGSKVEIWIRFGDYWIRITVEPKPNGRKKVSVEVYNPNGEPMWSITFEIDPDGKIKDIDITPMPSAGGSA [r2_260_TrROS] | 4.53 ± 0.23 | 5.03 ± 0.14 | 5.01 ± 0.13
11 | SAGGSKWIPVSIWFPKGMTPEKVEEIARELVEAGYRIENIEVEREPDPNGREWYRVDITFRPPGDLSAGGSA [r2_442_TrROS] | 2.71 ± 0.085 | 3.01 ± 0.089 | 2.83 ± 0.18
12 | SAGGSKWRMYEITLELGDKPVKITVYYMDGNYSVAIKFPPGRKVDIPFDGPMSPEDAAKKALEALGSAGGSA [r2_92_TrROS] | 2.34 ± 0.056 | 3.579 ± 0.026 | 3.24 ± 0.095
13 | SAGGSKYPIEVTDPENGNPVLLEDVESLASVTQEEPGDGRSLYTATVPETGEPVFLTSPEKLAAALSSAGGS [r8_206_JUSTAS] | 0.593 ± 0.035 | 0.0753 ± 0.19 | 0.384 ± 0.11
14 | SAGGSLIEKIAKEAGIKVEISKEETNGSPVLTITITKGDKNIVFKDDGKDPEKLVKELAKKIGIKPISAGGS [r8_226_JUSTAS] | 0.499 ± 0.043 | 0.414 ± 0.086 | 0.422 ± 0.19
15 | SAGGSLPLPPGATVETTEVDPANPDRTYKTTTTFTPVPGNTLLATPVVTDPETGTTTTTTTTVPLALGSAGG [r13_268_JUSTAS] | 0.321 ± 0.054 | 0.809 ± 0.15 | 0.64 ± 0.13
16 | SAGGSLPPGQWIFMIQLEIEPPNGNTWPFNIMVPPDNVEEQAKEIADRLRENGLKVKIEITDVMPVSAGGSA [r2_274_TrROS] | 2.22 ± 0.13 | 3.5 ± 0.083 | 3.09 ± 0.13
17 | SAGGSLPPSTVIESEIVIEIEIENNISGIPGKTEKAFIIIKVTVTTDENGNLSSSVEIEIIPAKDLSAGGSA [r2_448_TrMRF] | 3.22 ± 0.23 | 2.97 ± 0.21 | 3.26 ± 0.41
18 | SAGGSLSNVTPLGTTPVTLPGSTVTITVYKSDTPGVVYVKIEYPETGVEKVRVLSPEELEKVIEELLSAGGS [r8_469_JUSTAS] | 2.69 ± 0.071 | 3.199 ± 0.025 | 3.07 ± 0.054
19 | SAGGSLVEKVKAIFAEKGIPVNPITTTPTSFTAKTPTGPFTVELPGNSTVTVSPDGTATVTVPPGLSSAGGS [r8_297_JUSTAS] | 1.41 ± 0.16 | 2.2 ± 0.066 | 1.99 ± 0.21
20 | SAGGSLVYRLVLRRGDKVLVVTAPFDSPSDALAAASRLLPGGAELLLEFFDPRTGEPLGTVPFRSVSAGGSA [r2_390_TrMRF] | 2.257 ± 0.015 | 2.06 ± 0.039 | 2.22 ± 0.034
21 | SAGGSMAEPGPMNMTLSFDGIEKEFSVEITVRKRPDGTEVLELRLPDGVPLTLPAAEAAKIVDMSGSAGGSA [r2_297_JUSTAS] | 0.549 ± 0.023 | 0.879 ± 0.036 | 0.764 ± 0.051
22 | SAGGSMEEEFAARGATVTIDPEKGVITVTFYEEVTQPDGTPVLRRKGTLTIEVPGNDPSQALAKALEESAGG [r13_924_JUSTAS] | 1.41 ± 0.032 | 2.1 ± 0.088 | 1.96 ± 0.12
23 | SAGGSMIEVERDPNDPNRYRARLPVIEENPPEPKLVYVDVYVDPENGLVYARAVTEDGGEAEFRFESAGGSA [r2_428_TrMRF] | 0.448 ± 0.12 | 1.03 ± 0.16 | 0.786 ± 0.17
24 | SAGGSMIPLDNIDTIEIYENPKEGKYEAKIYFPSNGKVYVFPEGLLPEIIESTPKIKEIKVIPVPESAGGSA [r2_159_TrMRF] | -1.19 ± 0.71 | 0.362 ± 0.26 | -0.0295 ± 0.25
25 | SAGGSMITFTVTPDATVEFPDGVTVTLIPGEGKWVATAGEKEIEAPYTPLPDDTYVVTLELPEGIAASAGGS [r16_245_JUSTAS] | 0.337 ± 0.046 | -0.101 ± 0.27 | 0.369 ± 0.13
26 | SAGGSMITLTFPAPREVAVPAIEAAAEKHGVTILSVEFDPATGRLTVTVDSSLPEEEVRAMVAAVLASAGGS [r8_338_JUSTAS] | 4.75 ± 0.24 | 4.47 ± 0.058 | 4.57 ± 0.075
